Read-outs that look alike come from different tables or passages of the source.

Data set [1] has as its target T1, FprA1 (Clostridium acetobutylicum, UniProt Q97K92).
T1 sequence (Q97K92 2-392): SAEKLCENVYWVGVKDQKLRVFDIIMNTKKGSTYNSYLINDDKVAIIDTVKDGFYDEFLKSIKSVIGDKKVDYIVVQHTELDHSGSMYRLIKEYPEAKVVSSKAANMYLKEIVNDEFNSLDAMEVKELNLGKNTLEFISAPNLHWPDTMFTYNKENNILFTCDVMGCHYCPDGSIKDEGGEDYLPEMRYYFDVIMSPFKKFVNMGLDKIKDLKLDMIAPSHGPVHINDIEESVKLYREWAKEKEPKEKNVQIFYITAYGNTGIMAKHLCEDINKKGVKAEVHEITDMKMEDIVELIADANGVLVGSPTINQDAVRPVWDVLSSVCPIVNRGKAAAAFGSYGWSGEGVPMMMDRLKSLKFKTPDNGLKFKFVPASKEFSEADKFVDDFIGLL
Briefly: TLC of the flavin cofactor. Type of data set: binding. Particulars: co-purified oxidized flavin, 378 and 450 nm bands.

Data set [2] deals with the molecule itself. Briefly: SEC.
Data set [3] deals with the molecule itself. As to the kind of experiment: SEC. This is another data set of the same source.

Turning to `Cc1cc2nc3c(=O)[nH]c(=O)nc-3n(C[C@H](O)[C@H](O)[C@H](O)COP(=O)(O)O)c2cc1C` [FMN], the “TLC of the flavin cofactor; UV-visible absorption of purified protein” value in data set [1] was “TLC analysis identified FMN as the flavin cofactor in both FprA1 and FprA2”.

B1: C. acetobutylicum flavo-diiron protein FprA1 (enzyme, UniProt Q97K92 1-392, looked up)
chain: MSAEKLCENVYWVGVKDQKLRVFDIIMNTKKGSTYNSYLINDDKVAIIDTVKDGFYDEFLKSIKSVIGDKKVDYIVVQHTELDHSGSMYRLIKEYPEAKVVSSKAANMYLKEIVNDEFNSLDAMEVKELNLGKNTLEFISAPNLHWPDTMFTYNKENNILFTCDVMGCHYCPDGSIKDEGGEDYLPEMRYYFDVIMSPFKKFVNMGLDKIKDLKLDMIAPSHGPVHINDIEESVKLYREWAKEKEPKEKNVQIFYITAYGNTGIMAKHLCEDINKKGVKAEVHEITDMKMEDIVELIADANGVLVGSPTINQDAVRPVWDVLSSVCPIVNRGKAAAAFGSYGWSGEGVPMMMDRLKSLKFKTPDNGLKFKFVPASKEFSEADKFVDDFIGLL
Regarding B1, the “stoichiometry N” value in data set [2] was found to be 2.

B2: C. acetobutylicum flavo-diiron protein FprA2 (enzyme, UniProt Q97GC0 1-400, looked up)
chain: MPAIKIKDNIFSVGVLNPSLRIFDIIMKTEYGTSYNAYLIKGKKNVLIDTVHGRFFDEYLENIKSVIDPSSIDYVIMNHCEPDHSGSLARLYEVAPQIKVIASNAGKIYLKNITNKETLDVKAVKTNDTLDIGNGKVLKFAIAPFLHWPDSMFTILEEDKIAFTCDFLGCHFCEPRMFDTKITYMPKYEKSFKEYYDAIFSPFKPYVVKGLDILDALDLDFIATSHGPILTREGLLAASKQKYRDLSSEIQSTTKYIPIFYCSAYGNTEILANEIASGIKSVLNDANIEMLDIINYDYSDLKEKINICDAFMLGTPTINKDALFPIWELIGGIDAVNCKNKPASAFGSFGWSGEAIPFVISRLKELKLKVFQDGFTCLFVPSEDDIKKAFKFGEDFAKSI
Turning to B2, the “stoichiometry N” value is 2 in data set [3] and 4 in data set [2].
